In IntAct's records for PubMed 16720724:

B1: Activin receptor type-1B (Homo sapiens), P36896 (parent)
chain: MAESAGASSFFPLVVLLLAGSGGSGPRGVQALLCACTSCLQANYTCETDGACMVSIFNLDGMEHHVRTCIPKVELVPAGKPFYCLSSEDLRNTHCCYTDYCNRIDLRVPSGHLKEPEHPSMWGPVELVGIIAGPVFLLFLIIIIVFLVINYHQRVYHNRQRLDMEDPSCEMCLSKDKTLQDLVYDLSTSGSGSGLPLFVQRTVARTIVLQEIIGKGRFGEVWRGRWRGGDVAVKIFSSREERSWFREAEIYQTVMLRHENILGFIAADNKDNGTWTQLWLVSDYHEHGSLFDYLNRYTVTIEGMIKLALSAASGLAHLHMEIVGTQGKPGIAHRDLKSKNILVKKNGMCAIADLGLAVRHDAVTDTIDIAPNQRVGTKRYMAPEVLDETINMKHFDSFKCADIYALGLVYWEIARRCNSGGVHEEYQLPYYDLVPSDPSIEEMRKVVCDQKLRPNIPNWWQSYEALRVMGKMMRECWYANGAARLTALRIKKTLSQLSVQEDVKI

Variants of: B1
Settings: with smad7_human SMAD7, O15105
Sequence of smad7_human SMAD7, O15105 (O15105 whole entry): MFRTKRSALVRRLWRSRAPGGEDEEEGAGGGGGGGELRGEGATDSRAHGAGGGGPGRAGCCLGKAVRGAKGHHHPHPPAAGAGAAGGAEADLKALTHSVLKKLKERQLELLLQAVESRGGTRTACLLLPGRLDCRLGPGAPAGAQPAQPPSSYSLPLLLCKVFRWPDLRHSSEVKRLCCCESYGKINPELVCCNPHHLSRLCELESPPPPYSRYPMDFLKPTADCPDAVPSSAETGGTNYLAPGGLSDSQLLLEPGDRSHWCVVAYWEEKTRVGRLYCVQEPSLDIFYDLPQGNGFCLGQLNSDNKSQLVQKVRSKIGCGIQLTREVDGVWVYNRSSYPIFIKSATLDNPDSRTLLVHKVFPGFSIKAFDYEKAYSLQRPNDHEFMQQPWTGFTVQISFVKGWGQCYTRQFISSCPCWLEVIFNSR

effect of a mutation on the interaction	Variant
increasing interaction	MAESAGASSFFPLVVLLLAGSGGSGPRGVQALLCACTSCLQANYTCETDGACMVSIFNLDGMEHHVRTCIPKVELVPAGKPFYCLSSEDLRNTHCCYTDYCNRIDLRVPSGHLKEPEHPSMWGPVELVGIIAGPVFLLFLIIIIVFLVINYHQRVYHNRQRLDMEDPSCEMCLSKDKTLQDLVYDLSTSGSGSGLPLFVQRTVAREIVLQEIIGKGRFGEVWRGRWRGGDVAVKIFSSREERSWFREAEIYQTVMLRHENILGFIAADNKDNGTWTQLWLVSDYHEHGSLFDYLNRYTVTIEGMIKLALSAASGLAHLHMEIVGTQGKPGIAHRDLKSKNILVKKNGMCAIADLGLAVRHDAVTDTIDIAPNQRVGTKRYMAPEVLDETINMKHFDSFKCADIYALGLVYWEIARRCNSGGVHEEYQLPYYDLVPSDPSIEEMRKVVCDQKLRPNIPNWWQSYEALRVMGKMMRECWYANGAARLTALRIKKTLSQLSVQEDVKI [T206E]
